Measured values reported in CN117990904A.

Molecular target: A型FMDV毒株
Experiment: cell-based or functional assay

B1: A型口蹄疫病毒中和抗体Ab1 (VHH)
VHH: QVQLQESGGGLVQAGGSLRLSCVYSGFTFGHYSMGWYRQAPGKEREFVAAIRRSDGSTDYADSTVKGRFTISRDNAKKTVYLQMNSLKPEDTAVYYCATVRRVATLSGSSSWGQGTQVTVSS
Work on B1 yielded a Neu 50 (病毒中和试验) of 1.2 µmol/L.
